# Where two headings read alike, the source gives them in different places.
# B1: mAb2021 (anti-TFPI Ab, Novo Nordisk) (antibody, from another filing, V domains shown)
# VH: EVQLVESGGGLVKPGGSLRLSCAASGFTFSNYAMSWVRQTPEKRLEWVATISRSGSYSYFPDSVQGRFTISRDNAKNSLYLQMNSLRAEDTAVYYCARLGGYDEGDAMDSWGQGTTVTVSS
# VL: DIVMTQTPLSLSVTPGQPASISCKSSQSLLESDGKTYLNWYLQKPGQSPQLLIYLVSILDSGVPDRFSGSGSGTDFTLKISRVEAEDVGVYYCLQATHFPQTFGGGTKVEIKR
# Tests used:
# [1] = target: recombinant human TFPI (tissue factor pathway inhibitor) (human) (UniProt P10646)
# [2] = target: recombinant human TFPI (tissue factor pathway inhibitor) (human) (UniProt P10646); remark: listed apart in the source
# [3] = target: recombinant human TFPI (tissue factor pathway inhibitor) (human) (UniProt P10646); experiment: cell-based or functional assay
# [4] = target: recombinant human TFPI (tissue factor pathway inhibitor) (human) (UniProt P10646); remark: listed apart in the source
# [5] = target: recombinant human TFPI (tissue factor pathway inhibitor) (human) (UniProt P10646); remark: listed apart in the source
# [6] = target: recombinant human TFPI (tissue factor pathway inhibitor) (human) (UniProt P10646); experiment: cell-based or functional assay; remark: listed apart in the source
# [7] = target: recombinant human TFPI (tissue factor pathway inhibitor) (human) (UniProt P10646); experiment: cell-based or functional assay; remark: listed apart in the source
binder,measurement,setting,value
B1,"FXa assay % of FXa alone, 2.5 nM Ab, 10 nM TFPI",[1],8.4%
same,"FXa assay % of FXa alone, 5 nM Ab, 10 nM TFPI",[1],21%
same,"FXa assay % of FXa alone, 10 nM Ab, 10 nM TFPI",[1],90.7%
same,"FXa assay % of FXa alone, 20 nM Ab, 10 nM TFPI",[1],95.2%
same,"FXa assay OD, 2.5 nM Ab, 10 nM TFPI",[1],0.101
same,"FXa assay OD, 5 nM Ab, 10 nM TFPI",[1],0.249
same,"FXa assay OD, 10 nM Ab, 10 nM TFPI",[1],1.08
same,"FXa assay OD, 20 nM Ab, 10 nM TFPI",[1],1.13
same,"FXa assay % of FXa alone, 2.5 nM Ab, 10 nM TFPI",[2],6.6%
same,"FXa assay % of FXa alone, 5 nM Ab, 10 nM TFPI",[2],35%
same,"FXa assay % of FXa alone, 10 nM Ab, 10 nM TFPI",[2],98.5%
same,"FXa assay % of FXa alone, 20 nM Ab, 10 nM TFPI",[2],85.8%
same,"FXa assay OD, 2.5 nM Ab, 10 nM TFPI",[2],0.032
same,"FXa assay OD, 5 nM Ab, 10 nM TFPI",[2],0.17
same,"FXa assay OD, 10 nM Ab, 10 nM TFPI",[2],0.476
same,"FXa assay OD, 20 nM Ab, 10 nM TFPI",[2],0.415
same,"% of Normalized, TF/FVIIa/FX complex assay (FX 5 nM), Ab 1.56 nM",[3],5.3%
same,"% of Normalized, TF/FVIIa/FX complex assay (FX 5 nM), Ab 3.13 nM",[3],5.7%
same,"% of Normalized, TF/FVIIa/FX complex assay (FX 5 nM), Ab 6.25 nM",[3],6.1%
same,"% of Normalized, TF/FVIIa/FX complex assay (FX 5 nM), Ab 12.5 nM",[3],10.1%
same,"% of Normalized, TF/FVIIa/FX complex assay (FX 5 nM), Ab 25 nM",[3],42.5%
same,"% of Normalized, TF/FVIIa/FX complex assay (FX 5 nM), Ab 50 nM",[3],90.6%
same,"% of Normalized, TF/FVIIa/FX complex assay (FX 5 nM), Ab 100 nM",[3],99.4%
same,"% of Normalized, TF/FVIIa/FX complex assay, Ab 1.56 nM",[3],13.6%
same,"% of Normalized, TF/FVIIa/FX complex assay, Ab 3.13 nM",[3],15.7%
same,"% of Normalized, TF/FVIIa/FX complex assay, Ab 6.25 nM",[3],18.2%
same,"% of Normalized, TF/FVIIa/FX complex assay, Ab 12.5 nM",[3],23.7%
same,"% of Normalized, TF/FVIIa/FX complex assay, Ab 25 nM",[3],100%
same,"% of Normalized, TF/FVIIa/FX complex assay, Ab 50 nM",[3],101%
same,"% of Normalized, TF/FVIIa/FX complex assay, Ab 100 nM",[3],102%
same,"A405, TF/FVIIa/FX complex assay (FX 5 nM), Ab 1.56 nM",[3],0.043
same,"A405, TF/FVIIa/FX complex assay (FX 5 nM), Ab 3.13 nM",[3],0.047
same,"A405, TF/FVIIa/FX complex assay (FX 5 nM), Ab 6.25 nM",[3],0.05
same,"A405, TF/FVIIa/FX complex assay (FX 5 nM), Ab 12.5 nM",[3],0.082
same,"A405, TF/FVIIa/FX complex assay (FX 5 nM), Ab 25 nM",[3],0.344
same,"A405, TF/FVIIa/FX complex assay (FX 5 nM), Ab 50 nM",[3],0.733
same,"A405, TF/FVIIa/FX complex assay (FX 5 nM), Ab 100 nM",[3],0.805
same,"A405, TF/FVIIa/FX complex assay, Ab 1.56 nM",[3],0.125
same,"A405, TF/FVIIa/FX complex assay, Ab 3.13 nM",[3],0.145
same,"A405, TF/FVIIa/FX complex assay, Ab 6.25 nM",[3],0.168
same,"A405, TF/FVIIa/FX complex assay, Ab 12.5 nM",[3],0.218
same,"A405, TF/FVIIa/FX complex assay, Ab 25 nM",[3],0.918
same,"A405, TF/FVIIa/FX complex assay, Ab 50 nM",[3],0.929
same,"A405, TF/FVIIa/FX complex assay, Ab 100 nM",[3],0.937
same,"FXa assay % of FXa alone, 2.5 nM Ab, 10 nM TFPI",[4],9.2%
same,"FXa assay % of FXa alone, 5 nM Ab, 10 nM TFPI",[4],87%
same,"FXa assay % of FXa alone, 10 nM Ab, 10 nM TFPI",[4],95.7%
same,"FXa assay % of FXa alone, 20 nM Ab, 10 nM TFPI",[4],98.3%
same,"FXa assay OD, 2.5 nM Ab, 10 nM TFPI",[4],0.0745
same,"FXa assay OD, 5 nM Ab, 10 nM TFPI",[4],0.702
same,"FXa assay OD, 10 nM Ab, 10 nM TFPI",[4],0.772
same,"FXa assay OD, 20 nM Ab, 10 nM TFPI",[4],0.793
same,"FXa assay % of FXa alone, 2.5 nM Ab, 10 nM TFPI",[5],9%
same,"FXa assay % of FXa alone, 5 nM Ab, 10 nM TFPI",[5],61.3%
same,"FXa assay % of FXa alone, 10 nM Ab, 10 nM TFPI",[5],97.4%
same,"FXa assay % of FXa alone, 20 nM Ab, 10 nM TFPI",[5],93.6%
same,"FXa assay OD, 2.5 nM Ab, 10 nM TFPI",[5],0.065
same,"FXa assay OD, 5 nM Ab, 10 nM TFPI",[5],0.441
same,"FXa assay OD, 10 nM Ab, 10 nM TFPI",[5],0.701
same,"FXa assay OD, 20 nM Ab, 10 nM TFPI",[5],0.673
same,"% of Normalized, TF/FVIIa/FX complex assay, Ab 1.56 nM",[6],15%
same,"% of Normalized, TF/FVIIa/FX complex assay, Ab 3.13 nM",[6],15.6%
same,"% of Normalized, TF/FVIIa/FX complex assay, Ab 6.25 nM",[6],17%
same,"% of Normalized, TF/FVIIa/FX complex assay, Ab 12.5 nM",[6],26.3%
same,"% of Normalized, TF/FVIIa/FX complex assay, Ab 25 nM",[6],102%
same,"% of Normalized, TF/FVIIa/FX complex assay, Ab 50 nM",[6],104%
same,"% of Normalized, TF/FVIIa/FX complex assay, Ab 100 nM",[6],104%
same,"% of Normalized, TF/FVIIa/FX complex assay, Ab 1.56 nM",[7],5.2%
same,"% of Normalized, TF/FVIIa/FX complex assay, Ab 3.13 nM",[7],5.4%
same,"% of Normalized, TF/FVIIa/FX complex assay, Ab 6.25 nM",[7],7.3%

# Source: patent US20180030151A1
